Results reported in patent US20130302346A1 (LEXICON PHARMACEUTICALS, published 2013).
Changes are numbered by the printed parent chain.

B1: MAb 1.802 (antibody, V domains shown)
VH: EVQLVESGGGLVKPGGSLKLSCAASGFTFSDYGMHWFRQAPEKGLEWVAYISSGSRTVYYADTVKGRFTISRDNAKNTLSLQMTSLRSEDTAMYYCARKHYNGGYFDVWGTGTTVTVSS
VL: DIVLTQSPASLAVSLGQRATISCRASKIVSTSGYSYMHWYQQKPGQPPKLLIYLASNLESGVPARFSGSGSGTDFTLNIHPVEEEDAATYYCQHSRELPPTFGSGTKLEIKR
notes: Mouse monoclonal antibody from Campaign 1 (raised against human NOTUM), IgG1
B2: MAb 1.815 (antibody, IgG1, V domains shown)
VH: DVQLLESGGGLVQPGGSRKLSCAASGFTFSDFGMHWVRQAPEKGLEWVAYSSSGGTTVYYADTVKGRLTLSRDNSKNTLFLEMTSLRSEDTAMYYCARASYDGGYFDCWGQGTSLTVSS
VL: B1 VL with I28S, M37I, N57D, T73A, D74A, Q93H, P100F
notes: Mouse monoclonal antibody from Campaign 1, IgG1
B3: MAb 1.846 (antibody, IgG2b, V domains shown)
VH: B1 VH with G10D, F37L, R56T, V58L, Y59S, D62N, V64M, N77K, M93I, H100N
VL: B1 VL with A12V, I28S, T31E, E85G, A88T, E97V
notes: Mouse monoclonal antibody from Campaign 1, IgG2b

Legend:
Human NOTUM [1] = target: T1, Human NOTUM (human, UniProt Q6P988 20-496); test: Biacore 3000
T1 construct: also called human notum pectinacetylesterase; recombinant human NOTUM
T1 sequence: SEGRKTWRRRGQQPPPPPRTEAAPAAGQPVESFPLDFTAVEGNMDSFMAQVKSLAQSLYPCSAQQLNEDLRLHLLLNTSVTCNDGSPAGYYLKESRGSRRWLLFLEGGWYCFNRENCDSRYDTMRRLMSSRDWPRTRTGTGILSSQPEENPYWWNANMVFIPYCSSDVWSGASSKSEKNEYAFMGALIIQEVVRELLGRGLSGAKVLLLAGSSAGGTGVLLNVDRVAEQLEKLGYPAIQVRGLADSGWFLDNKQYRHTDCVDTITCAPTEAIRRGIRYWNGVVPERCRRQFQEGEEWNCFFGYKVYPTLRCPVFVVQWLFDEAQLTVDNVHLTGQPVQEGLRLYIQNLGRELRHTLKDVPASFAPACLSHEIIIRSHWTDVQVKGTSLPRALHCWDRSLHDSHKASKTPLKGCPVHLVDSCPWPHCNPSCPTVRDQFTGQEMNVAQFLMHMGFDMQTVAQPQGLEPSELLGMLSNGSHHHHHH
Description: Binding affinities of certain anti-NOTUM MAbs was determined using a Biacore 3000. In order to obtain meaningful affinity values for binding to multimeric […] NOTUM protein, antibody FAb fragments were generated by digestion of whole IgG with the protease Ficin, followed by removal of undigested IgG and Fc fragments by protein A affinity chromatography. Affinity values for binding of FAbs and whole IgG to human NOTUM corresponded, and their affinity values were in the single to low double digit nM range, as shown in Table 3.

H(S232A) = target: T2, H(S232A); test: ELISA on conditioned medium of HEK293F transfected with the NOTUM construct (Example 6.7)
T2 construct: The catalytic triad serine is drawn as A on the sheet; also called Human NOTUM S232A
T2 single chain: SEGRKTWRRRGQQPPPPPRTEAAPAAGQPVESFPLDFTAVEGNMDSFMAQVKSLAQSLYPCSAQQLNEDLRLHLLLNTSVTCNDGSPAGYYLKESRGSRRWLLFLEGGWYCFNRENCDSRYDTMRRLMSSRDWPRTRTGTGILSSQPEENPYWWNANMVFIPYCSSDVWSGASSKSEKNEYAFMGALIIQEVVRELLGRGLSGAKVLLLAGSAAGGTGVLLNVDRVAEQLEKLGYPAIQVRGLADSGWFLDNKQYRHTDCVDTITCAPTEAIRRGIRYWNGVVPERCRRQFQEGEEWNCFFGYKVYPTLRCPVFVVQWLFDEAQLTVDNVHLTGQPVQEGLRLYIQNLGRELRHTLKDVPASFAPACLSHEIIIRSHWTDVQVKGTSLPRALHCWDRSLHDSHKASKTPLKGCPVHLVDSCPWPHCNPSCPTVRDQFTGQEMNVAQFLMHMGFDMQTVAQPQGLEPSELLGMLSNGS
Text: (§1) The sequences of those proteins are shown in Section 7 (Table of Sequences). The conditioned media were used in ELISA format to determine antibody specificity. […] Within this region, mouse and human NOTUM differ at five positions (R115K, D141S. R150K, R154H, and Y171H, based on the human sequence numbering). Human NOTUM point mutants were generated by transient transfection of constructs expressing human NOTUM with the mouse amino acid at each of these five positions and the point mutants were all shown to be functional in the OPTS assay.

M-H-M = target: T3, M-H-M; test: as above
T3 construct: Drawn on the sheet as mouse up to the M177 line, a human middle segment, then a mouse C-terminal part; Conditioned medium from transfected HEK293F; also called Mouse-human-mouse chimeric NOTUM
T3 single chain: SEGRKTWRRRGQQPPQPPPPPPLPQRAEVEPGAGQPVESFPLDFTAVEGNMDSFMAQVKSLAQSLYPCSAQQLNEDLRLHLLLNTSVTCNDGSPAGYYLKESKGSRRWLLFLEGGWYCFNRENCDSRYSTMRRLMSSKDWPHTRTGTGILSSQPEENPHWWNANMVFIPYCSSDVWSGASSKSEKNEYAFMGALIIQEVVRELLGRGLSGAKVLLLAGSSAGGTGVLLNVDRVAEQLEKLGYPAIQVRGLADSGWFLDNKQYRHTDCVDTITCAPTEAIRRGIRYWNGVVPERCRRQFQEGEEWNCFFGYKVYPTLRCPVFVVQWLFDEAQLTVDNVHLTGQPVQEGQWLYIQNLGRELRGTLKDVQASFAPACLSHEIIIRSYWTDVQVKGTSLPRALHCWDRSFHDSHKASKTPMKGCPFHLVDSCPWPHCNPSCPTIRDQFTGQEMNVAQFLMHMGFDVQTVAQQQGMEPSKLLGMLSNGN
Text: as §1

Human NOTUM [2] = target: T1, Human NOTUM; test: cell-based or functional assay

Row | Binder | Kd (Human NOTUM [1]) | kon (Human NOTUM [1]) | binding result (H(S232A)) | binding result (M-H-M) | OPTS IC50 (nM; human NOTUM) (Human NOTUM [2]) | Wnt signaling IC50 (nM; human NOTUM) (Human NOTUM [2])
1 | B1 | 1.42 nM | 257000 M⁻¹ s⁻¹ | binds | no binding | 6.44 nM | 5.71 nM
2 | B2 |  |  | binds | no binding | 7.62 nM | 6.88 nM
3 | B3 |  |  | binds | no binding | 10.1 nM | 1.7 nM
